In US8273710B2, “Protein hydrolysate enriched in peptides inhibiting DPP-IV and their use” (Campina Nederland Holding B.V., priority 2004, dated 2012):

Experiments:
DPP-IV [1] = biological target: T1, DPP-IV (Sus scrofa, UniProt P22411); settings: for RELATIVE POTENCY [%]: signal relative to the highest signal obtained in this test (LPL and IPI)
Source text: About 40 protein hydrolysates were subjected to on-line liquid chromatography (LC)-biochemical detection (BCD)-mass spectrometry (MS), a method that allowed for separation of crude extract by HPLC, after which the presence of bioactive compounds was detected by means of an on-line biochemical assay. This method for on-line fractionation and characterisation has extensively been described by Van Elswijk et al. (J Chromatography A (2003) 1020:45-58).
A variety of protein hydrolysates prepared according to example 2 were further investigated for DPP-IV inhibiting activity. Hydrolysed protein samples were analysed for DPP-IV inhibitory activity in a high-resolution screening (HRS) instrument, as discussed in Van Elswijk et al. (supra).
DPP-IV inhibition was monitored via the substrate conversion based bioassay format as disclosed in example 1. In addition to the DPP-IV inhibitory activity data, chemical information was obtained in real-time by allowing part of the HPLC effluent to be directed towards a mass spectrometer. […] The assay conditions applied ensured maximum enzyme activity by applying substrate saturation.

DPP-IV [2] = biological target: T1, DPP-IV; test: In vitro DPP-IV inhibition assay with Gly-Pro-p-nitroanilide substrate (absorption at 385 nm); type: biochemical; design: purchased Sigma D-7052; settings: unhydrolysed control proteins, DH 0%
Procedure: DPP-IV activity can be determined by measuring the increase in absorption at 385 nm using Gly-Pro-p-nitroanilide (Sigma G-0513) as DPP-IV substrate. A decrease in DPP-IV activity is a measure for the inhibition.
13.152 mg Gly-Pro-p-nitroanilide (substrate; Sigma G-0513) was dissolved in 1 ml Tris buffer, pH 8.0. DPP-IV (Sigma D-7052) was diluted with Tris buffer, pH 8.0 to 1.1 Unit/ml. The substrate was diluted 50-fold with Tris buffer, pH 8.0. The samples were prepared by diluting a protein hydrolysate to a 1 wt. % protein solution in Tris buffer, pH 8.0. The samples were then serially diluted to obtain a range of sample concentrations. 50 μl of the different serially diluted samples and 50 μl of the diluted substrate were then pipetted in wells of a microtiter plate with 96 wells. Subsequently, 100 μl of the diluted enzyme was pipetted in each well of a plate with 96 wells. Then the increase in absorption at 385 nm was determined and DPP-IV activities at different concentrations of a variety of protein hydrolysates were determined, from which the IC50 (i.e. the concentration of inhibitor (particular protein hydrolysate) that inhibits 50% of the DPP-IV activity) could be derived. […] The degree of hydrolysis was determined using the o-phtaldialdehyde method, which is well known in the art.

T1 sequence (P22411 whole entry): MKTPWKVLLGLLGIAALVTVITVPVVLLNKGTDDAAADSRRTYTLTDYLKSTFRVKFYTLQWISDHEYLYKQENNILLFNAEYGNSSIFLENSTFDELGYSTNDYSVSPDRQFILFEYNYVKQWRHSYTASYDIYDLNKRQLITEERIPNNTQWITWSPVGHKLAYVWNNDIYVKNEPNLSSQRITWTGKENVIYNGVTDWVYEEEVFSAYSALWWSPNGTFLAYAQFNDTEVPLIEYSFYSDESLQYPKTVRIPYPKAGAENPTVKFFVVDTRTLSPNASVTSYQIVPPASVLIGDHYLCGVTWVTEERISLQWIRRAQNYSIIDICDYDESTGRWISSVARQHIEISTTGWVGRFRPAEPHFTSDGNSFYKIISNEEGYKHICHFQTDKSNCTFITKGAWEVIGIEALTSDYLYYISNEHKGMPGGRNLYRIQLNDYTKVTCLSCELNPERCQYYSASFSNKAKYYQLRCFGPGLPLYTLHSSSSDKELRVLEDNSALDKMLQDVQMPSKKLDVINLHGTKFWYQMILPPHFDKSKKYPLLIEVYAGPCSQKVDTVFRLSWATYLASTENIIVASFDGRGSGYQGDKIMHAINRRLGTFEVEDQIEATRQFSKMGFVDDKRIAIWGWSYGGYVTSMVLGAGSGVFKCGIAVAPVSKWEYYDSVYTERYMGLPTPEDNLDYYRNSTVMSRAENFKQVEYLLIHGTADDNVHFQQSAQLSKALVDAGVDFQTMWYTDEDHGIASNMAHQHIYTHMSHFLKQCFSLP

| RELATIVE POTENCY [%] (DPP-IV [1]) | Compound | further results |
| --- | --- | --- |
| 11 | LPLP |  |
| 98 | KVLP |  |
| 20 | PFP |  |
| 37 | PLLQ |  |
| 6 | HPIK |  |
| 23 | MPLW |  |

The next lines start with the compound.

| Compound | RELATIVE POTENCY [%] (DPP-IV [1]) | further results |
| --- | --- | --- |
| CC[C@H](C)[C@H](N)C(=O)N1CCC[C@H]1C(=O)N[C@H](C(=O)O)[C@@H](C)CC [IPI] | 100 |  |
| VTKCCTE |  | DPP-IV inhibiting activity (qualitative) (DPP-IV [1]; additional peptides): DPP-IV inhibiting compounds |
| LPVP | 15 |  |
| Sodium caseinate |  | inhibition of the enzyme DPP-IV (DPP-IV [2]): did not inhibit |
| GPFP | 34 |  |
